# Results: paper PMC9352680, “A comprehensive thermodynamic model for RNA binding by the Saccharomyces cerevisiae Pumilio protein PUF4”
# T1: PUF4 RNA-binding domain (Saccharomyces cerevisiae, UniProt P25339 537-888)
# T1 sequence: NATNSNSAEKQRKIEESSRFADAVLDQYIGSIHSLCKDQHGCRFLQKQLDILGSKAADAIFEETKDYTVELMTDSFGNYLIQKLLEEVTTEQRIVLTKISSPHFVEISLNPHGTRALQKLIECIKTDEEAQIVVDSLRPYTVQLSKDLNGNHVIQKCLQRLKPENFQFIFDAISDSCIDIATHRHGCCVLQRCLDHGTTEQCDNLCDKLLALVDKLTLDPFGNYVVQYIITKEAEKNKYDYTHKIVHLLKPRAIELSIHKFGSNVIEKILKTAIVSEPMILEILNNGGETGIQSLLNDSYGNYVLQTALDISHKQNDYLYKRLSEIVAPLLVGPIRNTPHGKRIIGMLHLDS
# Target: T1, PUF4 RNA-binding domain
# Experiment: Mg; RNA-MaP; 20 mM Na-HEPES pH 7.4, 30 mM KOAc, 0.75 mM MgCl2, 0.1% Tween-20, 5% glycerol, 0.1 mg/mL BSA, 2 mM DTT; 25 C; 0.0125-409.6 nM protein
# Settings: tags: N-His6-TEV cleaved; C-SNAP kept, Cy3B-labelled; label: tethered on chip by stalled RNA polymerase
binder,measurement,value
Ib_S2_P5E.1_K5.1_C5.1_H5.1_[G2A]_A5.1_F5.1_[A10T]_T5.1 (ssRNA) RNA: UUUGAUUAAUAUGAUAUCGUUCUUUCUUAUAUUAUUUUUCUUUCUCGAUAUCAUAUUAAUCUUU,Kd,137 nM
Ic_S2_P5E.1_K5.1_C5.1_H5.1_A5.1_[A7C]_F5.1_[T9A]_T5.1 (ssRNA) RNA: UUUGAUUAAUAUGAUAUCGUUCUUUCUUGUAUUCUAAUUCUUUCUCGAUAUCAUAUUAAUCUUU,Kd,2.31 nM
Ib_S2_P5E.1_K5.1_C5.1_H5.1_A5.1_[T5C]_F5.1_[T8A]_T5.1 (ssRNA) RNA: UUUGAUUAAUAUGAUAUCGUUCUUUCUUGUACUAAUAUUCUUUCUCGAUAUCAUAUUAAUCUUU,Kd,4.42 nM
Ic_S2_P5E.1_K5.1_C5.1_H5.1_A5.1_[A7G]_F5.1_[T8G]_T5.1 (ssRNA) RNA: UUUGAUUAAUAUGAUAUCGUUCUUUCUUGUAUUGGUAUUCUUUCUCGAUAUCAUAUUAAUCUUU,Kd,62.8 nM
Ia_S2_P5E.1_K5.1_C5.1_H5.1_A5.1_F5.1_[A10C]_T5.1 (ssRNA) RNA: UUUGAUUAAUAUGAUAUCGUUCUUUCUUGUAUUAUUCUUCUUUCUCGAUAUCAUAUUAAUCUUU,Kd,12.7 nM
Ib_S2_P5E.1_K5.1_C5.1_H5.1_A5.1_[T5C]_F5.1_[T9C]_T5.1 (ssRNA) RNA: UUUGAUUAAUAUGAUAUCGUUCUUUCUUGUACUAUCAUUCUUUCUCGAUAUCAUAUUAAUCUUU,Kd,16.9 nM
Ib_S2_P5E.1_K5.1_C5.1_H5.1_A5.1_[T6A]_F5.1_[A10T]_T5.1 (ssRNA) RNA: UUUGAUUAAUAUGAUAUCGUUCUUUCUUGUAUAAUUUUUCUUUCUCGAUAUCAUAUUAAUCUUU,Kd,6.98 nM
Ib_S2_P5E.1_K5.1_C5.1_H5.1_A5.1_[T5G]_F5.1_[T9A]_T5.1 (ssRNA) RNA: UUUGAUUAAUAUGAUAUCGUUCUUUCUUGUAGUAUAAUUCUUUCUCGAUAUCAUAUUAAUCUUU,Kd,5.43 nM
Ib_S2_P5E.1_K5.1_C5.1_H5.1_A5.1_[T6C]_F5.1_[A10C]_T5.1 (ssRNA) RNA: UUUGAUUAAUAUGAUAUCGUUCUUUCUUGUAUCAUUCUUCUUUCUCGAUAUCAUAUUAAUCUUU,Kd,6.38 nM
Ib_S2_P5E.1_K5.1_C5.1_H5.1_A5.1_[A7T]_F5.1_[A10G]_T5.1 (ssRNA) RNA: UUUGAUUAAUAUGAUAUCGUUCUUUCUUGUAUUUUUGUUCUUUCUCGAUAUCAUAUUAAUCUUU,Kd,10.8 nM
Ib_S2_P5E.1_K5.1_C5.1_H5.1_A5.1_[A7C]_F5.1_[T8A]_T5.1 (ssRNA) RNA: UUUGAUUAAUAUGAUAUCGUUCUUUCUUGUAUUCAUAUUCUUUCUCGAUAUCAUAUUAAUCUUU,Kd,8.24 nM
Ib_S2_P5E.1_K5.1_C5.1_H5.1_A5.1_[T6C]_F5.1_[A10T]_T5.1 (ssRNA) RNA: UUUGAUUAAUAUGAUAUCGUUCUUUCUUGUAUCAUUUUUCUUUCUCGAUAUCAUAUUAAUCUUU,Kd,4.73 nM
Ib_S2_P5E.1_K5.1_C5.1_H5.1_A5.1_[A7T]_F5.1_[A10C]_T5.1 (ssRNA) RNA: UUUGAUUAAUAUGAUAUCGUUCUUUCUUGUAUUUUUCUUCUUUCUCGAUAUCAUAUUAAUCUUU,Kd,13 nM
Ib_S2_P5E.1_K5.1_C5.1_H5.1_[A4C]_A5.1_F5.1_[A10T]_T5.1 (ssRNA) RNA: UUUGAUUAAUAUGAUAUCGUUCUUUCUUGUCUUAUUUUUCUUUCUCGAUAUCAUAUUAAUCUUU,Kd,180 nM
Ib_S2_P5E.1_K5.1_C5.1_H5.1_A5.1_[T5G]_F5.1_[T8C]_T5.1 (ssRNA) RNA: UUUGAUUAAUAUGAUAUCGUUCUUUCUUGUAGUACUAUUCUUUCUCGAUAUCAUAUUAAUCUUU,Kd,12.9 nM
Ic_S2_P5E.1_K5.1_C5.1_H5.1_A5.1_[T6A]_F5.1_[T9C]_T5.1 (ssRNA) RNA: UUUGAUUAAUAUGAUAUCGUUCUUUCUUGUAUAAUCAUUCUUUCUCGAUAUCAUAUUAAUCUUU,Kd,34 nM
Ib_S2_P5E.1_K5.1_C5.1_H5.1_A5.1_[A7G]_F5.1_[T9A]_T5.1 (ssRNA) RNA: UUUGAUUAAUAUGAUAUCGUUCUUUCUUGUAUUGUAAUUCUUUCUCGAUAUCAUAUUAAUCUUU,Kd,10.6 nM
Ib_S2_P5E.1_K5.1_C5.1_H5.1_A5.1_[A7T]_F5.1_[T9A]_T5.1 (ssRNA) RNA: UUUGAUUAAUAUGAUAUCGUUCUUUCUUGUAUUUUAAUUCUUUCUCGAUAUCAUAUUAAUCUUU,Kd,2.01 nM
Ib_S2_P5E.1_K5.1_C5.1_H5.1_[T3C]_A5.1_F5.1_[A10T]_T5.1 (ssRNA) RNA: UUUGAUUAAUAUGAUAUCGUUCUUUCUUGCAUUAUUUUUCUUUCUCGAUAUCAUAUUAAUCUUU,Kd,2020 nM
Ia_S2_P5E.1_K5.1_C5.1_H5.1_A5.1_F5.1_[T8C]_T5.1 (ssRNA) RNA: UUUGAUUAAUAUGAUAUCGUUCUUUCUUGUAUUACUAUUCUUUCUCGAUAUCAUAUUAAUCUUU,Kd,2.99 nM
Ib_S2_P5E.1_K5.1_C5.1_H5.1_A5.1_[T5G]_F5.1_[T9C]_T5.1 (ssRNA) RNA: UUUGAUUAAUAUGAUAUCGUUCUUUCUUGUAGUAUCAUUCUUUCUCGAUAUCAUAUUAAUCUUU,Kd,104 nM
Ia_S2_P5E.1_K5.1_C5.1_H5.1_A5.1_F5.1_[A10G]_T5.1 (ssRNA) RNA: UUUGAUUAAUAUGAUAUCGUUCUUUCUUGUAUUAUUGUUCUUUCUCGAUAUCAUAUUAAUCUUU,Kd,7.81 nM
Ib_S2_P5E.1_K5.1_C5.1_H5.1_A5.1_[T5A]_F5.1_[T9A]_T5.1 (ssRNA) RNA: UUUGAUUAAUAUGAUAUCGUUCUUUCUUGUAAUAUAAUUCUUUCUCGAUAUCAUAUUAAUCUUU,Kd,2.52 nM
Ib_S2_P5E.1_K5.1_C5.1_H5.1_A5.1_[T6A]_F5.1_[T8A]_T5.1 (ssRNA) RNA: UUUGAUUAAUAUGAUAUCGUUCUUUCUUGUAUAAAUAUUCUUUCUCGAUAUCAUAUUAAUCUUU,Kd,5.15 nM
Ib_S2_P5E.1_K5.1_C5.1_H5.1_A5.1_[T5G]_F5.1_[A10G]_T5.1 (ssRNA) RNA: UUUGAUUAAUAUGAUAUCGUUCUUUCUUGUAGUAUUGUUCUUUCUCGAUAUCAUAUUAAUCUUU,Kd,84.5 nM
Ia_S2_P5E.1_K5.1_C5.1_H5.1_A5.1_F5.1_[T8A]_T5.1 (ssRNA) RNA: UUUGAUUAAUAUGAUAUCGUUCUUUCUUGUAUUAAUAUUCUUUCUCGAUAUCAUAUUAAUCUUU,Kd,6.54 nM
Ib_S2_P5E.1_K5.1_C5.1_H5.1_A5.1_[T5C]_F5.1_[A10T]_T5.1 (ssRNA) RNA: UUUGAUUAAUAUGAUAUCGUUCUUUCUUGUACUAUUUUUCUUUCUCGAUAUCAUAUUAAUCUUU,Kd,3.1 nM
Ib_S2_P5E.1_K5.1_C5.1_H5.1_A5.1_[T5G]_F5.1_[A10C]_T5.1 (ssRNA) RNA: UUUGAUUAAUAUGAUAUCGUUCUUUCUUGUAGUAUUCUUCUUUCUCGAUAUCAUAUUAAUCUUU,Kd,61.5 nM
Ib_S2_P5E.1_K5.1_C5.1_H5.1_[A4C]_A5.1_F5.1_[A10C]_T5.1 (ssRNA) RNA: UUUGAUUAAUAUGAUAUCGUUCUUUCUUGUCUUAUUCUUCUUUCUCGAUAUCAUAUUAAUCUUU,Kd,572 nM
Ib_S2_P5E.1_K5.1_C5.1_H5.1_A5.1_[T5A]_F5.1_[A10T]_T5.1 (ssRNA) RNA: UUUGAUUAAUAUGAUAUCGUUCUUUCUUGUAAUAUUUUUCUUUCUCGAUAUCAUAUUAAUCUUU,Kd,9.98 nM
Ib_S2_P5E.1_K5.1_C5.1_H5.1_A5.1_[T5C]_F5.1_[A10C]_T5.1 (ssRNA) RNA: UUUGAUUAAUAUGAUAUCGUUCUUUCUUGUACUAUUCUUCUUUCUCGAUAUCAUAUUAAUCUUU,Kd,4.69 nM
Ib_S2_P5E.1_K5.1_C5.1_H5.1_A5.1_[A7C]_F5.1_[A10C]_T5.1 (ssRNA) RNA: UUUGAUUAAUAUGAUAUCGUUCUUUCUUGUAUUCUUCUUCUUUCUCGAUAUCAUAUUAAUCUUU,Kd,14.5 nM
Ib_S2_P5E.1_K5.1_C5.1_H5.1_A5.1_[T5C]_F5.1_[T8C]_T5.1 (ssRNA) RNA: UUUGAUUAAUAUGAUAUCGUUCUUUCUUGUACUACUAUUCUUUCUCGAUAUCAUAUUAAUCUUU,Kd,2.86 nM
Ib_S2_P5E.1_K5.1_C5.1_H5.1_A5.1_[T6A]_F5.1_[T8C]_T5.1 (ssRNA) RNA: UUUGAUUAAUAUGAUAUCGUUCUUUCUUGUAUAACUAUUCUUUCUCGAUAUCAUAUUAAUCUUU,Kd,5.31 nM
Ic_S2_P5E.1_K5.1_C5.1_H5.1_A5.1_[T6C]_F5.1_[T9A]_T5.1 (ssRNA) RNA: UUUGAUUAAUAUGAUAUCGUUCUUUCUUGUAUCAUAAUUCUUUCUCGAUAUCAUAUUAAUCUUU,Kd,0.834 nM
Ib_S2_P5E.1_K5.1_C5.1_H5.1_A5.1_[T6A]_F5.1_[A10G]_T5.1 (ssRNA) RNA: UUUGAUUAAUAUGAUAUCGUUCUUUCUUGUAUAAUUGUUCUUUCUCGAUAUCAUAUUAAUCUUU,Kd,7.49 nM
Ib_S2_P5E.1_K5.1_C5.1_H5.1_[A4G]_A5.1_F5.1_[A10C]_T5.1 (ssRNA) RNA: UUUGAUUAAUAUGAUAUCGUUCUUUCUUGUGUUAUUCUUCUUUCUCGAUAUCAUAUUAAUCUUU,Kd,106 nM
Ib_S2_P5E.1_K5.1_C5.1_H5.1_A5.1_[T5G]_F5.1_[T8A]_T5.1 (ssRNA) RNA: UUUGAUUAAUAUGAUAUCGUUCUUUCUUGUAGUAAUAUUCUUUCUCGAUAUCAUAUUAAUCUUU,Kd,31.4 nM
Ib_S2_P5E.1_K5.1_C5.1_H5.1_A5.1_[A7T]_F5.1_[T8A]_T5.1 (ssRNA) RNA: UUUGAUUAAUAUGAUAUCGUUCUUUCUUGUAUUUAUAUUCUUUCUCGAUAUCAUAUUAAUCUUU,Kd,3.83 nM
Ib_S2_P5E.1_K5.1_C5.1_H5.1_A5.1_[T6C]_F5.1_[T8C]_T5.1 (ssRNA) RNA: UUUGAUUAAUAUGAUAUCGUUCUUUCUUGUAUCACUAUUCUUUCUCGAUAUCAUAUUAAUCUUU,Kd,3.8 nM
Ib_S2_P5E.1_K5.1_C5.1_H5.1_A5.1_[T6A]_F5.1_[T9A]_T5.1 (ssRNA) RNA: UUUGAUUAAUAUGAUAUCGUUCUUUCUUGUAUAAUAAUUCUUUCUCGAUAUCAUAUUAAUCUUU,Kd,1.12 nM
Ib_S2_P5E.1_K5.1_C5.1_H5.1_A5.1_[T5A]_F5.1_[T8C]_T5.1 (ssRNA) RNA: UUUGAUUAAUAUGAUAUCGUUCUUUCUUGUAAUACUAUUCUUUCUCGAUAUCAUAUUAAUCUUU,Kd,7.72 nM
Ib_S2_P5E.1_K5.1_C5.1_H5.1_A5.1_[T6A]_F5.1_[A10C]_T5.1 (ssRNA) RNA: UUUGAUUAAUAUGAUAUCGUUCUUUCUUGUAUAAUUCUUCUUUCUCGAUAUCAUAUUAAUCUUU,Kd,6.16 nM
Ib_S2_P5E.1_K5.1_C5.1_H5.1_A5.1_[A7T]_F5.1_[T8C]_T5.1 (ssRNA) RNA: UUUGAUUAAUAUGAUAUCGUUCUUUCUUGUAUUUCUAUUCUUUCUCGAUAUCAUAUUAAUCUUU,Kd,3.48 nM
UCUCUUUCUAUAUAUCUCUU (ssRNA) [Ia_S1_P3E.1_K3.1_C3.1_H3.1_[G2C]_A3.1_F3.1_T3.1],Kd,> 2300 nM
